# From publication PMC6303191
# Columns and labels:
# VRC01 UCA (human) = assay: SPR
# VRC01 UCA = assay: BLI; conditions: read at the end of association (300 s), read off a plot
# VRC01 UCA (human), sequence (heavy, as listed by the source, chain 1 of 2): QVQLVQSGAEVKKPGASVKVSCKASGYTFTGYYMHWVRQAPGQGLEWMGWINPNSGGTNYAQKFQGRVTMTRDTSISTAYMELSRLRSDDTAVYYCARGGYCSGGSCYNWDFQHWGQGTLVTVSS
# VRC01 UCA (human), sequence (light, as listed by the source, chain 2 of 2): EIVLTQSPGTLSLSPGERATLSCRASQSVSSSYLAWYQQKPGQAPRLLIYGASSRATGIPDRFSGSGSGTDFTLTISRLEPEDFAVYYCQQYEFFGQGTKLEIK
substance,measurement,setting,value
BG505 SOSIP v4.1-GT1 trimer (from UniProt Q2N0S6 1-860) (complex),Kd,VRC01 UCA (human),3000 nM
same,koff,VRC01 UCA (human),0.018 s⁻¹
same,kon,VRC01 UCA (human),8000 M⁻¹ s⁻¹
TM4ΔV1-3 (24-mer) D268R; E370A,response,"VRC01 UCA; VRC01 UCA IgG x 24-mer, parent: est. 0.68",0 nm
TM4ΔV1-3 (heptamer) D368R; E370A,response,"VRC01 UCA; VRC01 UCA IgG x heptamer, parent: est. 0.43",0 nm
TM4ΔV1-3 (monomer) (domain or fragment),Kd,VRC01 UCA (human),> 100000 nM
